Assay results taken from the supplement of paper PMC9170038.

Experiments:
[1] = system: K4 kissing-loop RNA reporter; assay: apparent KD of K4 kissing-loop reporter; higher = weaker reporter binding; settings: Eterna round: R107;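 further: bound reporter read as fluorescence of individual clusters on recovered sequencing chips by microscopy, with normalized cluster intensities fitted with a binding model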
Description: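 RNA-MaP round R107: designed RNA switches with theophylline, tryptophan, arginine or FMN aptamers are transcribed on-chip within common flanks. They are titrated with a labelled K4 kissing-loop RNA reporter in RNA-MaP buffer (100 mM Tris pH 7.5, 80 mM KCl, 4 mM MgCl2), without ligand or with the indicated ligand. Median apparent KD per design.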

MS2 coat protein = assay: apparent KD of MS2 coat protein; designed switch direction (-1 OFF switch, 1 ON switch): -1; higher = weaker reporter binding
Summary of the method: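 Designed RNA switches with common flanks were transcribed on Illumina chips by stalled E. coli RNA polymerase and titrated with SNAP-549-labelled MS2 coat protein, from 0.7 or 1.5 nM doubling to 3 µM, in Tris-HCl pH 7.5 buffer with KCl, MgCl2, BSA, DTT, tRNA and Tween-20. Steps lasted 0.8–1.5 h (lowest) to 10–20 min (highest). Titrations ran without input, with 200 uM small-molecule ligand, or with an oligonucleotide input. Normalised cluster fluorescence was curve-fitted, and apparent KD is the per-design median over clusters.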

[2] = input ligand: theophylline 20 uM
[3] = input ligand: tryptophan 2.4 mM
[4] = Eterna round: R95, input ligand: microRNA oligo, concentration not stated
[5] = input ligand: microRNA oligo, concentration not stated

Sequence	apparent KD of K4 kissing-loop reporter ([1]; input ligand: FMN 200 uM)	apparent KD of K4 kissing-loop reporter ([1]; input ligand: arginine 13.2 mM)	apparent KD of K4 kissing-loop reporter ([1]; input ligand: none)	apparent KD of K4 kissing-loop reporter [1, 2]	apparent KD of K4 kissing-loop reporter [1, 3]	apparent KD of MS2 coat protein (MS2 coat protein; [4])	apparent KD of MS2 coat protein (MS2 coat protein; input ligand: FMN 200 uM)	apparent KD of MS2 coat protein (MS2 coat protein; [5])	apparent KD of MS2 coat protein (MS2 coat protein; input ligand: none)
UGGGCUGCCUGAGGAUAUAGAGACGAGUGAUGUUCGUGGAUAAGAGCCAGUGAUGUUGGGUUAUUUCUAGAAGGCGGGCGAACUU [Exclusion FMN B GF8]	105 nM	104 nM	120 nM	129 nM	115 nM				
GACAACAGGGUGAGACUCACGGCGCCAGAAGGAGCGGUGAUUCCACCAGGUAGGUCGCUGGCCCAGUGAUGUUGGGCUUUGUGUC [Onoran]	129 nM	120 nM	138 nM	133 nM	123 nM				
AAACAUUGGUGCGAUACCAGCUGAUCGGAAACGAUCAUGCUGGAGUGAUGUUCCAGGAAAAGCCCUUGGCAGCGCACCGAUGAAA [MAT - Same State Theophlline B - Mod of Eli - D29]	128 nM	79.8 nM	78.5 nM	275 nM	95.9 nM				
GCACUCCAUCGGACGUAAGUGAUGUUUACCCGAGGACCGGUACGGCCGCCACUCGACCGUGCAUAACCAAAUCAAAUAGCUUCCG [theeternabot_exclusion_KL_Trp_A_31]	143 nM	127 nM	138 nM	120 nM	221 nM				
UUCAGACUACUACUAUUUAGUAGUAUAUACUAGGAUAUCCAGAUAUGGAGAAGGAGUGAUGUUCCUUAGUAGUAGUGAAUUAAAU [KL-XFMN-A6]	145 nM	138 nM	128 nM	144 nM	114 nM				
UAUCUAUGCUCGGCCGCCACUAGGACCGGGAUCUCUCUAGUGAUGUUAGUCUGAUCGGCCGCCACUAGGACCGGGAGUGUAGAUA [KL-SSTryp-B15 #DoubleAptamer]	101 nM	88.7 nM	91.2 nM	104 nM	80.3 nM				
AACCUACGAUCACAAUAGUGAUUGUAGGACUAGGAUAUGCUGAAAAGCAGAAGGAGUGAUGUUCCGUCAUGAAUAACAUGACAAA [FmnAX 3 #OpenEnded #K4Late #CoaxialStacking]	610 nM	465 nM	455 nM	497 nM	357 nM				
UAACUCUUGCAGUGAUGUUGCAAGUAUGCUCAGGAUAUCAGGAAACUGAGAAGGGAGUUUCCUGAGCUUCUGCAAGAGCUCAGAA [KL-SSFMN-A6]	618 nM	408 nM	547 nM	375 nM	382 nM				
UGUGGAGAAUAUGAUACCAGCAGUGAGAGAGAGGAAGUAUAGUGAUGUUAUAUGAGAGAAUGCCCUUGGCAGCAUAUGUAGAAGG [SSTheophylB.F]	133 nM	154 nM	107 nM	93.6 nM	128 nM				
UUUUAAAUGUCUGAUACCAGAGAAAAUAUAUGUAGUGAUGUUAUAUACAAAUUUAAUAAGCUCCCUUGGCAGCAGUAUGAAUUUU [AstrosExc-TheB#12]	616 nM	766 nM	873 nM	784 nM	552 nM				
GGCAUGGUGACGCGGCGGCCAUGCACUUGGGAGGAUAUGUUUCGUGACAGAAGGCCCAGUGAUGUUGGGUCUGUUCAAAAGGACU [Riteveat]	491 nM	170 nM	192 nM	174 nM	141 nM				
GCGCUUAAAUAAGGAUAUUACAGACUCAUCUACGAGUGAUGUUCGGUGCGCUGUGCACAGAGCCUGUAAGAAGGUAUAGCAUUGC [theeternabot_sameState_KL_FMN_B_41]	1010 nM	716 nM	1180 nM	811 nM	861 nM				
AGAGAUAUAUGAGGAUAUGGGUUUGUUAAUGAGUUAGUUUUAGUGUUGUUUGGUUAGUGAUGUUAUUUAGAAGGCGUGAGUGAUG [aatrmullin]	94.2 nM	62.3 nM	61.4 nM	78.4 nM	62.2 nM				
AUGCGCGUGCGAUGGAAAUCGCACGCGCAUCGAGGACCGGUACGGCCGCCACUCGCUCGCGCCGAGUGAUGUUCGGCCGGCGAAC [#2 SameState - Tryptophan_A Attempt #3 (HarryS)]	180 nM	162 nM	283 nM	329 nM	599 nM				
UUUGGAGUGGGAGGAUAUCCUAAUAUGGGUGAUGUUAGCGAUGUUGAAAGUGUAGUGAUGUUGUGCGGAGAAGGUCCAGUGUAGA [BDazzled - #14 - Exc. FMN B]	242 nM	165 nM	285 nM	292 nM	240 nM				
ACGGCGCUGGAACCAGUAAUGGGAAGAAUGCGAGGACCGGUACGGCCGCCACUCGCUUCCAGUGAUGUUGGAAGUGAGCCAACAA [Geerzaedre]	272 nM	275 nM	304 nM	277 nM	181 nM				
GGCUAGACUUAGCUAGGUACAUAAUACGAUACCAGUCUAGAAAUAGACCCUUGGCAGCGUAGGCAGUGAUGUUGCCACUAGCUGA [Theo B SS t7]	104 nM	144 nM	114 nM	144 nM	113 nM				
CUUUUGUGAGGAUAUCAGUAGUAAAAAAAUAAAAUUACUAUUGAGAAGGCACAUGAGGAUCACCCAUGUUCCUC [salish99_ex4_r3_029] (puzzle: Exclusion 4)						36.4 nM			
GCUGAUGCAGGAUAUAUAUGAAGCGUUCGAAUAGAAUGCGAACAUGAGGAUCACCCAUGUAGAAGGGCAUUGGC [Omei Ex 2, 1A] (puzzle: Exclusion 2)						13.9 nM			
GUCAGCUCGUCAGGAUAUGCACAUGAGGAUCACCCAUGUAAGAUCAAGCUGCUUCGGCAGCAAGUGCAGAAGGGACGAGCUGAU [ENG2/9-B3] (Eterna round: R96, puzzle: Exclusion NG 2)							156 nM	214 nM	294 nM
UGAGUGCUGCGAGGAUAUACAUGAGGAUCACCCAUGUUUUCCUGUGAGGCAUAGCCUCACAGGAUGUAGAAGGCGCAGUACUCU [Mat - Exclusion NG 2 - Mod of JL - D28] (Eterna round: R96, puzzle: Exclusion NG 2)							10.6 nM	8.03 nM	13.8 nM
